Patent US20100184658A1 (published 2010)

What was measured:
Assay in all cases: cell-based or functional assay
AKT2 (PKB beta) = AKT2 (PKB beta) (human (printed as (h)), UniProt P31751 1-481, limits assumed)
[1] = target: RPS6KB1 (p70S6K) Ribosomal protein S6 kinase, 70 kDa, polypeptide 1 (human (printed as (h)), UniProt P23443 1-421, limits assumed)
MAPK1(h) = MAPK1(h) (human (printed as (h)), UniProt P28482 1-360, limits assumed)
[2] = target: T1, SGK (SGK1) Serum/glucocorticoid regulated kinase (human (printed as (h)), UniProt O00141 60-431, limits assumed)
T1 sequence (looked up): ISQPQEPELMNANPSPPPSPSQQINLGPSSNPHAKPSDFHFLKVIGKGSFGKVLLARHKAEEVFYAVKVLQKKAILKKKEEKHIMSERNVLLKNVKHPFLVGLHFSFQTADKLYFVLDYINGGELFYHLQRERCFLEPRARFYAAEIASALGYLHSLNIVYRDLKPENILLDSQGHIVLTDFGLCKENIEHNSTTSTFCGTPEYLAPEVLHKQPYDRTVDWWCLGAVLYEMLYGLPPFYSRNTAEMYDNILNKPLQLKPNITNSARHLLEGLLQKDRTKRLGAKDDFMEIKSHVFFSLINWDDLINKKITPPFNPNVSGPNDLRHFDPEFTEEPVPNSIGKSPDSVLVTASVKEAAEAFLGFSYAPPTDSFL

PRKCB2 (PKC beta II) = PRKCB2 (PKC beta II) (human (printed as (h)), UniProt P05771-2 1-673)
PKA(h) = PKA(h) (human (printed as (h)), UniProt P17612 1-351)
IKBKB (IKK beta) IKK2 = target: T2, IKBKB (IKK beta) IKK2 (human (printed as (h)), UniProt O14920 1-756, limits assumed)
T2 sequence (looked up): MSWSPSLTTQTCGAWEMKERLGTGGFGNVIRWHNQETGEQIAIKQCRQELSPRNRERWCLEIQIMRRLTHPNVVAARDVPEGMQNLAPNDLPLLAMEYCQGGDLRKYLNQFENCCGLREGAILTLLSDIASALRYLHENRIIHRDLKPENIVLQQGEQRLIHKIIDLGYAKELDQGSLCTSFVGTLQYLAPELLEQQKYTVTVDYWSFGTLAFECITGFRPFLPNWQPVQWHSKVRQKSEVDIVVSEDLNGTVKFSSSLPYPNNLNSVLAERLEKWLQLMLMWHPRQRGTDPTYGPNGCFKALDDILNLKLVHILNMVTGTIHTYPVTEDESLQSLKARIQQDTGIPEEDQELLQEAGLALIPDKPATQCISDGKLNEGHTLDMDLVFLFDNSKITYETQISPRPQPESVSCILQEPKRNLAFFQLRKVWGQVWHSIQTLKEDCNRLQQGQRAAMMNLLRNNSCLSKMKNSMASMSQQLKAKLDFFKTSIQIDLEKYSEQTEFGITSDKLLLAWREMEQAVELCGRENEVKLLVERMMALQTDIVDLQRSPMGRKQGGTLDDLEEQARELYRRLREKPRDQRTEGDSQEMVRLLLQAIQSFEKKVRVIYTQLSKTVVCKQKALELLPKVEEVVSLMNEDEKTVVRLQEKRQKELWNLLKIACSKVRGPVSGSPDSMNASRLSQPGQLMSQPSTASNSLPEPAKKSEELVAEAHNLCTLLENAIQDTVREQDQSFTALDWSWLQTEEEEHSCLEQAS

PRKCZ (PKC zeta) = target: T3, PRKCZ (PKC zeta) (human (printed as (h)), UniProt Q05513 1-592, limits assumed)
T3 sequence (looked up): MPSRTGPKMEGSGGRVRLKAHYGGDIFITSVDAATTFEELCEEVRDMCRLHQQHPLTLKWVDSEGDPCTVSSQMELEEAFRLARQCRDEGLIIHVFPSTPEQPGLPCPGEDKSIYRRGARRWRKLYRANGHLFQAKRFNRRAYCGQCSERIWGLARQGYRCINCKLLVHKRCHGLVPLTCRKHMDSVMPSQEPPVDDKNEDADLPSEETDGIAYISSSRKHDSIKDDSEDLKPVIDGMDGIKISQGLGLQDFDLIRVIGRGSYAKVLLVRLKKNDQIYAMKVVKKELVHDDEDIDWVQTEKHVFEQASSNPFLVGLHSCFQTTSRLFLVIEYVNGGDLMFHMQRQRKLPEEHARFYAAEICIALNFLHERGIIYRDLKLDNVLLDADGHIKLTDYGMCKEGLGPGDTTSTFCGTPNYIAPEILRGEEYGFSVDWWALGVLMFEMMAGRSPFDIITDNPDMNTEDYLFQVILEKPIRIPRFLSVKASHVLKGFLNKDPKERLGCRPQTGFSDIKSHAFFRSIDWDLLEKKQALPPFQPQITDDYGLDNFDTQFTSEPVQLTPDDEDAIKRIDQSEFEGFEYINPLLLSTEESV

MAPK2(h) = MAPK2(h) (human (printed as (h)), UniProt P28482 1-360)
GSK3β(h) = GSK3β(h) (human (printed as (h)), UniProt P49841 1-420, limits assumed)
IR (h) = IR (h) (human (printed as (h)), UniProt P06213 1005-1310, limits assumed)
Chain of IR (h) (human (printed as (h)), UniProt P06213 1005-1310, limits assumed) (P06213 1005-1310 limits assumed): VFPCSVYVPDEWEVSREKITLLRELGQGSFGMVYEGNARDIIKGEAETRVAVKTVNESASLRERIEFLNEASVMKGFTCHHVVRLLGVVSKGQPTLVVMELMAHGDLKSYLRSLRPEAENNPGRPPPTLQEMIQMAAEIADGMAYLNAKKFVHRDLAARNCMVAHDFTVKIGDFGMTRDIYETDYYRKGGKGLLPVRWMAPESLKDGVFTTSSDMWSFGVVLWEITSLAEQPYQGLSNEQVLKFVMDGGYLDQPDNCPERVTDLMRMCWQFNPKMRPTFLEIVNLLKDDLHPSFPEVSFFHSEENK

Chain of RPS6KB1 (p70S6K) Ribosomal protein S6 kinase, 70 kDa, polypeptide 1 (human (printed as (h)), UniProt P23443 1-421, limits assumed) (P23443 1-421 limits assumed): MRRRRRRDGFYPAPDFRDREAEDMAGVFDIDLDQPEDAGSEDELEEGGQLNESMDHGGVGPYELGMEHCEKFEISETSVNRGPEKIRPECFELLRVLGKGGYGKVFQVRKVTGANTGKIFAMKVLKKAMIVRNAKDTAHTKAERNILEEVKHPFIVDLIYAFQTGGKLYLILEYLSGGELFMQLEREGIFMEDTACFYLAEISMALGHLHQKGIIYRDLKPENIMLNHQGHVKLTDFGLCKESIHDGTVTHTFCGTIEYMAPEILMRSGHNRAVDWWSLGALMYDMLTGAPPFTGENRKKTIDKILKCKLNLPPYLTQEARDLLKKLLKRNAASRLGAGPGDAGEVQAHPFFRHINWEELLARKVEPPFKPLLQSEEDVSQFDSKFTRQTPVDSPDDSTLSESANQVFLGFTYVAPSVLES
Chain of AKT2 (PKB beta) (human (printed as (h)), UniProt P31751 1-481, limits assumed) (P31751 whole entry): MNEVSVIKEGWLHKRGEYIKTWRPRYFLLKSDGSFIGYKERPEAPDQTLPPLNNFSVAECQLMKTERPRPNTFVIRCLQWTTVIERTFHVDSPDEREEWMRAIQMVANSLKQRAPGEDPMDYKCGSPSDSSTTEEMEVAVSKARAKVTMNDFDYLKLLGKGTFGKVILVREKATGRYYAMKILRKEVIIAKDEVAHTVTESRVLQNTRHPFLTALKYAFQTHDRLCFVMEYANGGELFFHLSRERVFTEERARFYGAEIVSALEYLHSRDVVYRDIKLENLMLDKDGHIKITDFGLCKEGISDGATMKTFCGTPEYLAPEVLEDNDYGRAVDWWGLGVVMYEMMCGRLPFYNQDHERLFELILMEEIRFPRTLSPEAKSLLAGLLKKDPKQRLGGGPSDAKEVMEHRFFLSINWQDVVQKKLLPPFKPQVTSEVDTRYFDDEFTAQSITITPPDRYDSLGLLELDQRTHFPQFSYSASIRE
Chain of GSK3β(h) (human (printed as (h)), UniProt P49841 1-420, limits assumed) (P49841 whole entry): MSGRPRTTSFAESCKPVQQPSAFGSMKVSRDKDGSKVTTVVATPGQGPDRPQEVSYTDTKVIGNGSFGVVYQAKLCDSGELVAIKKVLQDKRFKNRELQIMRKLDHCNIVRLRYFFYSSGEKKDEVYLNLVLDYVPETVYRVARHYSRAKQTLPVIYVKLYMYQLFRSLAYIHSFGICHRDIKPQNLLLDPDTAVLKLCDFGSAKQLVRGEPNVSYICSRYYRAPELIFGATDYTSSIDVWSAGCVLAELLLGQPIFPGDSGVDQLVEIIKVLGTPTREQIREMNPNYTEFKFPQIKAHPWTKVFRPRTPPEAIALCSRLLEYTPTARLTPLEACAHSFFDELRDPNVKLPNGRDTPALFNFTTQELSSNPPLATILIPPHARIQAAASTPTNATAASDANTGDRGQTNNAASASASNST
Chain of MAPK1(h) (human (printed as (h)), UniProt P28482 1-360, limits assumed) (P28482 whole entry): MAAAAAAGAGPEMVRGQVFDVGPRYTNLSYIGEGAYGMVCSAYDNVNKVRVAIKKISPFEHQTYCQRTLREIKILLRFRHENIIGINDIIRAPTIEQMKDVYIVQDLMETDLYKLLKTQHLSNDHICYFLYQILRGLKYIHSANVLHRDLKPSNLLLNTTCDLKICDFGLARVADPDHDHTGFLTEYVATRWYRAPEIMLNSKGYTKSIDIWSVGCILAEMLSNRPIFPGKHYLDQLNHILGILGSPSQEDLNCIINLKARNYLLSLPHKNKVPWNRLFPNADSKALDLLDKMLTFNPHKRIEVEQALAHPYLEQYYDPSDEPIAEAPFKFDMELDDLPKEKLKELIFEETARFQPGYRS
Chain of MAPK2(h) (human (printed as (h)), UniProt P28482 1-360) (P28482 whole entry): as above
Chain of PRKCB2 (PKC beta II) (human (printed as (h)), UniProt P05771-2 1-673) (P05771 other isoform, or with tags, fused parts or gaps limits assumed): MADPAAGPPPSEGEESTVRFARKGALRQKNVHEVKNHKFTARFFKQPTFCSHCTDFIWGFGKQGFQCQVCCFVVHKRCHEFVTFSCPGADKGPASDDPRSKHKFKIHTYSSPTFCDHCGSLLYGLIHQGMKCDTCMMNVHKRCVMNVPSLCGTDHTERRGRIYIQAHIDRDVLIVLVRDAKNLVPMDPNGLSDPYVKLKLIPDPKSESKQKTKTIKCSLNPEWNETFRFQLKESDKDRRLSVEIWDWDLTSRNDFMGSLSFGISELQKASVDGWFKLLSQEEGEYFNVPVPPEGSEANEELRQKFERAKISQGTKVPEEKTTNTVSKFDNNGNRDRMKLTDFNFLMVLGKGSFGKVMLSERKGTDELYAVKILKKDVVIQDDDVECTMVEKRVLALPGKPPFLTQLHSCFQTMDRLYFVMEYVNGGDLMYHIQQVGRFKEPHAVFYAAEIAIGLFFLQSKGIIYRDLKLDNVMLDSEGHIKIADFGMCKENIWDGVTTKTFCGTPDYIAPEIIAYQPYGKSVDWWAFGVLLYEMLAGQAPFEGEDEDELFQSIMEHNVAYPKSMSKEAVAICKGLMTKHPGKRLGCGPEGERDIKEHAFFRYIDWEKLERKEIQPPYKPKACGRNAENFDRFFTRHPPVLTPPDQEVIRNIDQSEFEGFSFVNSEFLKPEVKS

In the case of SGRPPMIVWFNRPFLIAVSHTHGQTILFMAKVINPVGA [D3 peptide], the “D3 at 0.1 µM % activity” value (AKT2 (PKB beta)) is reported as 63%, the “D3 at 1 µm % activity” value (AKT2 (PKB beta)) is reported as 12% and the “IC50” value (AKT2 (PKB beta)) is reported as 448 nM. For the same binder, the “D3 at 0.1 µM % activity” value [1] was 73%, the “D3 at 1 µm % activity” value [1] was 22% and the “IC50” value [1] was 373 nM. For the same binder, the “D3 at 0.1 µM % activity” value (MAPK1(h)) was 86%, the “D3 at 1 µm % activity” value (MAPK1(h)) was 92% and the “D3 at 0.1 µM % activity” value [2] was 74%. The “D3 at 1 µm % activity” value [2] was 5%, the “IC50” value [2] was 325 nM and the “D3 at 0.1 µM % activity” value (PRKCB2 (PKC beta II)) was 101%. The “D3 at 1 µm % activity” value (PRKCB2 (PKC beta II)) was 103%, the “D3 at 0.1 µM % activity” value (PKA(h)) was 115% and the “D3 at 1 µm % activity” value (PKA(h)) was 105%. The “D3 at 0.1 µM % activity” value (IKBKB (IKK beta) IKK2) was 103%, the “D3 at 1 µm % activity” value (IKBKB (IKK beta) IKK2) was 71% and the “D3 at 0.1 µM % activity” value (PRKCZ (PKC zeta)) was 95%. The “D3 at 1 µm % activity” value (PRKCZ (PKC zeta)) was 42%, the “IC50” value (PRKCZ (PKC zeta)) was 1040 nM and the “D3 at 0.1 µM % activity” value (MAPK2(h)) was 96%. The “D3 at 1 µm % activity” value (MAPK2(h)) was 96%, the “D3 at 0.1 µM % activity” value (GSK3β(h)) was 101% and the “D3 at 1 µm % activity” value (GSK3β(h)) was 100%. The “D3 at 0.1 µM % activity” value (IR (h)) was 96% and the “D3 at 1 µm % activity” value (IR (h)) was 103%.
